B1: TYRO protein tyrosine kinase-binding protein (Homo sapiens), O43914 (parent)
chain: MGGLEPCSRLLLLPLLLAVSGLRPVQAQAQSDCSCSTVSPGVLAGIVMGDLVLTVLIALAVYFLGRLVPRGRGAAEAATRKQRITETESPYQELQGQRSDVYSDLNTQRPYYK
B2: Hematopoietic cell signal transducer (Homo sapiens), Q9UBK5 (parent)
chain: MIHLGHILFLLLLPVAAAQTTPGERSSLPAFYPGTSGSCSGCGSLSLPLLAGLVAADAVASLLIVGAVFLCARPRRSPAQEDGKVYINMPGRG

What was measured:
[1] = variants of: B1; conditions: with nkg2c_human KLRC2, P26717
[2] = variants of: B1; conditions: with ki2s3_human KIR2DS3, Q14952
[3] = variants of: B2; conditions: with nkg2d_human KLRK1, P26718
Chain of nkg2d_human KLRK1, P26718 (P26718 whole entry): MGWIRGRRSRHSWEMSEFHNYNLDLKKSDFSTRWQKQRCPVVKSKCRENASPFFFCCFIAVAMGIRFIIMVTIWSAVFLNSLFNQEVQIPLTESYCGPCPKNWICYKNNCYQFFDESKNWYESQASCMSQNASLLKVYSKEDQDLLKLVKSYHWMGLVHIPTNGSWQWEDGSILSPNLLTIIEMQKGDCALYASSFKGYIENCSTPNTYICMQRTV

Chain of nkg2c_human KLRC2, P26717 (P26717 whole entry): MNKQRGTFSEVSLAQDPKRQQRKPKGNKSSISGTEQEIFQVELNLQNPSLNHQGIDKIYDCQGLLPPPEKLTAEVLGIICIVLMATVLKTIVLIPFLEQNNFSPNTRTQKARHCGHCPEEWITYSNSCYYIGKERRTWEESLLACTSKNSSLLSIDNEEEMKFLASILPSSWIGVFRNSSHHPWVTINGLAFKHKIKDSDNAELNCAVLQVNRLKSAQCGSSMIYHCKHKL
Chain of ki2s3_human KIR2DS3, Q14952 (Q14952 whole entry): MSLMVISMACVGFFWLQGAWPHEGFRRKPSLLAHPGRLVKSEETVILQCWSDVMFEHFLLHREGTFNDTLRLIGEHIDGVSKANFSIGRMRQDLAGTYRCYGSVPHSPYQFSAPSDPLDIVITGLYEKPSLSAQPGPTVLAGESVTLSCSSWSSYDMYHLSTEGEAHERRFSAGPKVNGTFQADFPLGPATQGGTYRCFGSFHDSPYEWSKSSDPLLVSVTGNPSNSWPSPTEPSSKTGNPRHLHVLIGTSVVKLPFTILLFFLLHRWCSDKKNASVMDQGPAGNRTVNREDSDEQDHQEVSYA

| effect of a mutation on the interaction [1] | effect of a mutation on the interaction [2] | effect of a mutation on the interaction [3] | Variant |
| --- | --- | --- | --- |
| decreasing interaction | decreasing interaction |  | T54A |
| decreasing interaction | decreasing interaction |  | A58F |
|  |  | decreasing interaction | D57A |

Source: IntAct's records for PubMed 20890284
